# Source: patent US20210030857A1 (NGM BIOPHARMACEUTICALS, published 2021)
# T1: human beta klotho mutant Y701A on HEK-293T cells (human, UniProt Q86Z14 1-1044)
# T1 sequence: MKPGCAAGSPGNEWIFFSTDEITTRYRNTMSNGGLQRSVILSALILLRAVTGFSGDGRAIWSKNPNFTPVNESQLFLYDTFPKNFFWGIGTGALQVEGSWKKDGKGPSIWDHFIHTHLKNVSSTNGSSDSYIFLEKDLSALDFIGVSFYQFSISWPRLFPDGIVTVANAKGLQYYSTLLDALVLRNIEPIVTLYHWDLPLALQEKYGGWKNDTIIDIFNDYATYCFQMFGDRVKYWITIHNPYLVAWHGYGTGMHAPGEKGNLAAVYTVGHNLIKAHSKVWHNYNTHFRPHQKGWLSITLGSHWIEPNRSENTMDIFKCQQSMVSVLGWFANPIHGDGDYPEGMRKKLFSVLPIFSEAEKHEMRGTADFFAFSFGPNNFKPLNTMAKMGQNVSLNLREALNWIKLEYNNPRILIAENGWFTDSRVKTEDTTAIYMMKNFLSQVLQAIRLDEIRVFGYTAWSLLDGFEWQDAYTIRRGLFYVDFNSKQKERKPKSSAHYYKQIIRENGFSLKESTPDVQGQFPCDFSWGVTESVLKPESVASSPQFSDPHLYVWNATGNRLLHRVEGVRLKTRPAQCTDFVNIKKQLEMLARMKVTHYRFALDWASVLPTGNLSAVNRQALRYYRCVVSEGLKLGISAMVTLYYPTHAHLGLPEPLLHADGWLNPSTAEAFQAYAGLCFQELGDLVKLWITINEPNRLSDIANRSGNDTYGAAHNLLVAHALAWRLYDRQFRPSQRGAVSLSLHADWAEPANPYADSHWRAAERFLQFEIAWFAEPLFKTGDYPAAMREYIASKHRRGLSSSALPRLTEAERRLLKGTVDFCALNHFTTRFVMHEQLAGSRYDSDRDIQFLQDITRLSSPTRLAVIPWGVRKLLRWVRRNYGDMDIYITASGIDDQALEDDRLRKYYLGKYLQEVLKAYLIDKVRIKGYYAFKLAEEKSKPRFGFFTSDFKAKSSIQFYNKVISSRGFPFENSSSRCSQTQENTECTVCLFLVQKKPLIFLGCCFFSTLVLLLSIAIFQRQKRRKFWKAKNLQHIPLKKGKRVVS
# T2: human beta klotho mutant R703A on HEK-293T cells (human, UniProt Q86Z14 1-1044)
# T2 sequence: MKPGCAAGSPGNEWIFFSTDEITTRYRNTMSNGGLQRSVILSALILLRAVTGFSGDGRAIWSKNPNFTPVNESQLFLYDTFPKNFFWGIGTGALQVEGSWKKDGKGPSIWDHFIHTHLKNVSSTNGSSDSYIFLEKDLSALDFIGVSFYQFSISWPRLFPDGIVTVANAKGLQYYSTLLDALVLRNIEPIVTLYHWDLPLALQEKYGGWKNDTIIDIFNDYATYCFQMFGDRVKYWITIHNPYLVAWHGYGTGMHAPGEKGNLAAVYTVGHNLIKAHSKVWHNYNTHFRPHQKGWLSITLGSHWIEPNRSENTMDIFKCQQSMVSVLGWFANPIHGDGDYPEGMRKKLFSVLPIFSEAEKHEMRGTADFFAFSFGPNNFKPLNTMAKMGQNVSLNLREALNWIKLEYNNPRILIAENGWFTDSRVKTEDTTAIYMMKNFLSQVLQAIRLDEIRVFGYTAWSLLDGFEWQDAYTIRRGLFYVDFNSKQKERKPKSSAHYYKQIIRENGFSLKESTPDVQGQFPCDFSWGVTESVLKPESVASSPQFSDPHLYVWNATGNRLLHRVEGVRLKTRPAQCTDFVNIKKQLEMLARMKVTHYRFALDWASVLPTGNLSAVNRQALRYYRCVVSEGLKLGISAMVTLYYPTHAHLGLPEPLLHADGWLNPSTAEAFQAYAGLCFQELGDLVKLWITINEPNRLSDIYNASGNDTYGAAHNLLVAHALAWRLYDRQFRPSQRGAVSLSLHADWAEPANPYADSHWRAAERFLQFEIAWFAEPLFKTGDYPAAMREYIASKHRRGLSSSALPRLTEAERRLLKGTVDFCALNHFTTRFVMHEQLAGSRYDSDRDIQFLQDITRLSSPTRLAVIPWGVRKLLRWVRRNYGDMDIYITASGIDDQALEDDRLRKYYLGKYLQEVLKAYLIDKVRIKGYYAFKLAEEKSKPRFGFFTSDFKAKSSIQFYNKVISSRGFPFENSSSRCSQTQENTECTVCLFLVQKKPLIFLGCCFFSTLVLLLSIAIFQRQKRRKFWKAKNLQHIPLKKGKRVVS
# What was measured:
# [1] = biological target: T1, human beta klotho mutant Y701A on …; test: shotgun alanine mutagenesis, FACS on HEK-293T cells
# Protocol: (§1) In order to further identify specific binding residues within human beta klotho KL2 domain, shotgun mutagenesis was used to separately mutate individual residues of the KL2 domain of human beta klotho to an alanine (e.g., residues F508A-L1008A). […] For example, screening of the beta klotho mutant proteins was conducted at a concentration of 0.5 μg/ml for the humanized 5H23 antibody, 1.0 μg/ml for the Fab fragment, and 2.0 μg/ml for a positive control polyclonal anti-beta klotho antibodies.
# [2] = biological target: T2, human beta klotho mutant R703A on …; test: as above
# Protocol: as §1
# [3] = biological target: T2, human beta klotho mutant R703A on …; test: shotgun alanine mutagenesis, FACS on HEK-293T cells, antibody 0.5 µg/ml
# Protocol: as §1
# The resulting mapping identified three specific binding residues, H657, Y701 and R703, which were negative for binding by the humanized 5H23 antibody, but were positive for the control polyclonal anti-beta klotho antibodies. These residues represented amino acids whose side changes made the highest energetic contributions to the antibody-epitope interation as shown in Table 31. The locations of the three identified residues were modeled by showing them (dark spheres) at the equivalent positions on human cytosolic beta-glucosidase (PDB ID #2JFE; Tribolo et al., J. Mol. Biol. 370, 964-975 (2007)), identified by BLAST alignment of the two proteins as shown in FIG. 6.
binder,measurement,setting,value
"humanized 5H23 antibody (VH SEQ ID NO: 271 and VL SEQ ID NO: 276) (antibody, V domains shown, also called h5H23; h5H23 (Prep 1)) VH: QVQLQQSGAEVKKPGASVKVSCKASGYTFTSYDINWVRQAPGQGLEWIGWIYPGDGSTKYNEKFKGKATITRDTSASTAYMELSSLRSEDTAVYFCARSDYYGSRSFAYWGQGTLVTVSS VL: DIVMTQSPDSLAVSLGERATINCRASKSVSTSGYVYMHWYQQKPGQPPKLLIYLASYLESGVPDRFSGSGSGTDFTLTISSVQAEDVAVYYCQHSRDLTFPFGGGTKLEIK",binding result,[1],no binding (tested: 0.5 µg/ml)
same,binding result,[2],no binding (tested: 0.5 µg/ml)
same,Binding Reactivity (% WT),[3],1.64 % WT
